According to publication PMC10183039:

Molecular target: Grp78 (rat (endogenous in hippocampus)) (UniProt P06761)
Assay: co-IP; primary antibody on Protein A/G magnetic beads in PBS with 0.3% Triton X-100; hippocampal tissue of 3-month-old male rats (WT; APP KO or SNCA KO for comparison) homogenized in RIPA lysis buffer; lysate with beads overnight at 4 °C; four washes with PBST; western blotting

Grp78 (rat (endogenous in hippocampus)), sequence (P06761 19-654): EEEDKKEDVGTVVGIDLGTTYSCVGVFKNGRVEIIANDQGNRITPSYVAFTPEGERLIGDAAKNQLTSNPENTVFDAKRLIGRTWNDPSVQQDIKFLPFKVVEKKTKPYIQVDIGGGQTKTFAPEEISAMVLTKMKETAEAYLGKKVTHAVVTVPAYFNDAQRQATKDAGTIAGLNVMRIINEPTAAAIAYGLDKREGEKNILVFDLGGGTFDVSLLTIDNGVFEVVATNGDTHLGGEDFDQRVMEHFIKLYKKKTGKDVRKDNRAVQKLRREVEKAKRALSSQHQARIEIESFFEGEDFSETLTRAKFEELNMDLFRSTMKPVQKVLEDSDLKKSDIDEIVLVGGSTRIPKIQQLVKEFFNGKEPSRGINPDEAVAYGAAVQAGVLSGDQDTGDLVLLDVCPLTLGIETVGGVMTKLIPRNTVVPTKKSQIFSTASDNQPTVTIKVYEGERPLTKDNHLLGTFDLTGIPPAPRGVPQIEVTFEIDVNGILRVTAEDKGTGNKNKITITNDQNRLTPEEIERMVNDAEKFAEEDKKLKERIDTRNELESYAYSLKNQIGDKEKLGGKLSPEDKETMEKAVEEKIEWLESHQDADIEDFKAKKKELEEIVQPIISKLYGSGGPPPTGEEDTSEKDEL
IP3R1, P29994 1-2750 (receptor), sequence (P29994 whole entry): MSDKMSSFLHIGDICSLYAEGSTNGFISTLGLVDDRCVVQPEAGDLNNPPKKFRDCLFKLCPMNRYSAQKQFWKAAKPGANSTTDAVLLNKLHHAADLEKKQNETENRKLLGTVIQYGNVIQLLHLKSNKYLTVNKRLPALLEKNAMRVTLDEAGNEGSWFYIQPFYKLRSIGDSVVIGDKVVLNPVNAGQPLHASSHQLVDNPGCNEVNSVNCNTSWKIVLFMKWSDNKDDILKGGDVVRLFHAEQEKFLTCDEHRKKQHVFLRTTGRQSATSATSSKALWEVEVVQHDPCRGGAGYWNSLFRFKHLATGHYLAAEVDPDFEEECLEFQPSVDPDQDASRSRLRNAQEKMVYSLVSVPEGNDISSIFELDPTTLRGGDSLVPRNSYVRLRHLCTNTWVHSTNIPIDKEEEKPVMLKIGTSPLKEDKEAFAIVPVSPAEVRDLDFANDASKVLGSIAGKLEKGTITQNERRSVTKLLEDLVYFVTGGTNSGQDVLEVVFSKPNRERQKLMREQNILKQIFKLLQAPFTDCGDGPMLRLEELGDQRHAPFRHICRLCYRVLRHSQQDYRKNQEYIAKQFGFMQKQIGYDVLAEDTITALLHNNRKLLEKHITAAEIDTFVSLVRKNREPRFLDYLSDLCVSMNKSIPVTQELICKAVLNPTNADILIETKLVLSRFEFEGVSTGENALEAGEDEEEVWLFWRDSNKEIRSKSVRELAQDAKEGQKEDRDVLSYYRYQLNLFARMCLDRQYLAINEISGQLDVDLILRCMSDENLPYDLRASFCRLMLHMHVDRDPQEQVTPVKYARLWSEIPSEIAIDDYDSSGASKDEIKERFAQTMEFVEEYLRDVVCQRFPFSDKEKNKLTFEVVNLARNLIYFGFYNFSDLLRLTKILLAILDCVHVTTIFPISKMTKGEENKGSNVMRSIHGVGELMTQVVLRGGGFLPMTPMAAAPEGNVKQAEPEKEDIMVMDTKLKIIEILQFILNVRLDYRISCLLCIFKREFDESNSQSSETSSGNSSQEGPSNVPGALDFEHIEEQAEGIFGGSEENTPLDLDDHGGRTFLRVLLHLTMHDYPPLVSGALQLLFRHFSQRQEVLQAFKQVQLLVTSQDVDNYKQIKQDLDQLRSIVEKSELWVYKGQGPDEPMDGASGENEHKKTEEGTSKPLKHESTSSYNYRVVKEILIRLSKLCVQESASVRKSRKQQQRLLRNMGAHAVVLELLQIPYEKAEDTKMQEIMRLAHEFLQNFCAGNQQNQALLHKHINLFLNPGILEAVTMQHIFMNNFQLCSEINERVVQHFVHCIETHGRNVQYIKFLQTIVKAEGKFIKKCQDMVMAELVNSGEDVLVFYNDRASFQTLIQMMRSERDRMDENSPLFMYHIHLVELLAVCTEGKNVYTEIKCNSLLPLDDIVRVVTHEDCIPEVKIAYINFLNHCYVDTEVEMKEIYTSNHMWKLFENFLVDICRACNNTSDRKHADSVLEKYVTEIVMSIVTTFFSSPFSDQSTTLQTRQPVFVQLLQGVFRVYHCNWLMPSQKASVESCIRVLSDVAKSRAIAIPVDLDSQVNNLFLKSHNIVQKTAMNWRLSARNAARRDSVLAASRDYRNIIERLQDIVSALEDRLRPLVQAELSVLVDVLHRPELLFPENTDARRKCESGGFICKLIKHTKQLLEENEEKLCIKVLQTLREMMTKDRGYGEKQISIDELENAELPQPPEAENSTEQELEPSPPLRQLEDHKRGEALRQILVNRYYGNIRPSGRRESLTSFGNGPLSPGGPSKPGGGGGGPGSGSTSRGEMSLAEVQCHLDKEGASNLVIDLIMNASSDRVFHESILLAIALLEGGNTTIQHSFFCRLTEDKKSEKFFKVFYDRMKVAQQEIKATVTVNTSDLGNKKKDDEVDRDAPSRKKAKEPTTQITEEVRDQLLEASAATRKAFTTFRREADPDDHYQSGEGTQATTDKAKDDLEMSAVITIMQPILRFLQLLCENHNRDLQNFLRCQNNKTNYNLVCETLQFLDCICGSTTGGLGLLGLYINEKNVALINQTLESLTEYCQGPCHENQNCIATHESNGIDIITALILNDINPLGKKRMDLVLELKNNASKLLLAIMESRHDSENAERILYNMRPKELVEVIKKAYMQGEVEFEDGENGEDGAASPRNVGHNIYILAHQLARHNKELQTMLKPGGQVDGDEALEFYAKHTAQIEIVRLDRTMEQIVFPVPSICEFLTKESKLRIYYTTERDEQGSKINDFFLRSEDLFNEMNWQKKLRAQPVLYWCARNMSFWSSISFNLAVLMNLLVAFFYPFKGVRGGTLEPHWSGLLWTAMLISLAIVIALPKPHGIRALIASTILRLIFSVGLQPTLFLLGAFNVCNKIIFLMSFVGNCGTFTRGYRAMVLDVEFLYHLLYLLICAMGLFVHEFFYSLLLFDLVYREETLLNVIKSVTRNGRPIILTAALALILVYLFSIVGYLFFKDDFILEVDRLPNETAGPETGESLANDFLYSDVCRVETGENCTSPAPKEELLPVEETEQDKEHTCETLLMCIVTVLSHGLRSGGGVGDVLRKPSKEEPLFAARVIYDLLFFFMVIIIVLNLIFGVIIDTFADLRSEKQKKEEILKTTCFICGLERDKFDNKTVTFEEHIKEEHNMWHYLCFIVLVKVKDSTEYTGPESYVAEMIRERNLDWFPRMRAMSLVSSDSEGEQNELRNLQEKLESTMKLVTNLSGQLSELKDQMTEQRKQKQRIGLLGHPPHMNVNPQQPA

## IP3R1, P29994 1-2750 (receptor)
  fold of IP3R1 co-immunoprecipitated with Grp78, APP KO lysate against WT lysate: 1.49 fold
